The values that follow come from patent US20250340623A1.

In test [1] the target is alpha-synuclein fibrils, P37840. As to the kind of experiment: SPR, captured mAb. The settings on record: remark: other sources report otherwise.
Test [2] concerns the target monomeric alpha-synuclein, P37840. As to the kind of experiment: SPR, captured mAb. The settings on record: remark: other sources report otherwise.

Where a chain is given by its changes, count along the chain named.

B1: ACI-7088-4303A1-Ab1 (antibody, V domains shown)
VH: EVQLQQSGAELVRPGASVKLSCTASGFNIKDDYMHWVKQRPEQGLEWIGWIDPENGDSEYASKFQGKATMTADTSSNTAYLQLSSLTSEDTAVYYCKTWGTAQALFPYWGQGTLVTVSA
VL: DIVMTQSQKFMSTSVGDRVSITCKASQNVGTSVGWYQQKAGQSPKLLIHSASNRYTGVPDRFTGSGSGTDFTLTINNMQSEDLADYFCQQYRSYPLTFGAGTKLELK
In the case of B1, in test [1], the Kd is 13.5 nM, the koff worked out at 0.000244 s⁻¹ and the kon was 18100 M⁻¹ s⁻¹. Moreover, in test [2], the Kd came out at 37.1 nM, the koff worked out at 0.0632 s⁻¹ and the kon came out at 1.7e+06 M⁻¹ s⁻¹.

B2: ACI-7079-2511B3-Ab3 (antibody, V domains shown)
VH: DVQLQESGPGLVKPSQSLSLTCSVTGFSITSYYYWNWIRQFPGNKLEWMAYISYDGSNNYNPSLKNRISITRDTSKNQFFLKLNSVTTEDTATYYCTRGDWDWGQGTLVTVSA
VL: not shown
For the molecule B2, in test [1], the Kd came out at 29.5 nM, the koff worked out at 0.000312 s⁻¹ and the association rate constant (kon) was determined as 10600 M⁻¹ s⁻¹. In test [2], this molecule showed a Kd of 6.3 nM, a koff of 0.000583 s⁻¹ and a kon of 92800 M⁻¹ s⁻¹.

B3: ACI-7079-2603C1-Ab3 (antibody, V domains shown)
VH: QVQLQQPGADLVKPGASVKLSCKASGYTFTSYWMQWTKQRPGQGLEWIGEIDPSDSYANYNQKFKGKATLTVDKYSSTAYMQLNSLTSEDSAVYYCALYDGPSYWGQGTLVTVS
VL: ENVLTQSPAIMSASPGEKVTMTCSAGSSVSYMHWFQQKSSTSPKLWIYDTSKLPSGVPGRFSGSGSGNSYSLTISSMEAEDVATYYCFQGSGYPYTFGGGTKLEIK
In test [1], B3 registered a Kd of 40.3 nM, a koff of 51.7 s⁻¹ and a kon of 1.28e+09 M⁻¹ s⁻¹. Further, in test [2], the Kd was found to be 10.9 nM, the koff worked out at 6.06 s⁻¹ and the kon worked out at 5.58e+08 M⁻¹ s⁻¹.

B4: ACI-7067-1107G5-Ab2 (antibody, V domains shown)
VH: QVQLQQPGTELVKPGASVKLSCKASGYTFTKYWMHWVKQRPGQGLEWIGNINPNNGDTNYNEKFKSKATLTVDKSSSTAYMQLSSLTSEDSAVYYCAIAMDYWGQGTSVTVSS
VL: DIQMTQSPSSLSAFLGERVSLTCRASQDIGNNLNWFQQEPDGTIKRLIYATSSLDSGVPKRFSGSRSGSEYSLTISSLESEDFVDYYCLQFGSSPLTFGAGTKLELK
With B4, in test [1], the Kd worked out at 16.1 nM, the koff came to 0.00218 s⁻¹ and the kon came out at 345000 M⁻¹ s⁻¹. In test [2], this molecule came in with a Kd of 7.2 nM, a koff of 0.00114 s⁻¹ and a kon of 158000 M⁻¹ s⁻¹.

B5: ACI-7079-2606A6-Ab2 (antibody, V domains shown)
VH: QVQLQQSGPELVKPGASVKISCKASGFAFSSSWMNWVKQRPGKGLEWVGRIFPGDGDTNYDRKFKDKATLTADKSSSTAYMQLSSLTSEDSAVYFCARWTGGYDWFAYWGQGTLVTVSA
VL: DIVLTQSPASLAVSLGQRATISCRASQSVSTSNYNYLHWYQQKPGQPPKLLITYASNLESGVPARFSGSGSGTDFTLNIHPVEEGDTATYYCQHSWEIPLTFGAGTKLELK
As to B5, in test [1], the Kd amounted to 56.2 nM, the koff was 0.000862 s⁻¹ and the association rate constant (kon) was determined as 15400 M⁻¹ s⁻¹. In test [2], the Kd was determined as 4.8 nM, the koff came to 0.00412 s⁻¹ and the kon turned out to be 860000 M⁻¹ s⁻¹.

B6: ACI-7079-2506E2-Ab2 (antibody, V domains shown)
VH: QVQLQQSGPELVRPGASVKISCKASGYAFSNSWMNWVKQRPGKGLEWIGRIFPGDGDTYYDGKFKGKVKLTTDKFSNTAYMQLRSLTSEDSAVYFCARWGGTNDEWFAHWGQGTLVTVSV
VL: DIVLTQSPASLTVSLGQRATISCRASQSVSTSRNSYMHWYQQKPRQPPKLLIKYASNLESGVPARFSGSGSGADFTLNIHPVEEEDTATYYCQHSWDIPLTFGTGTKLELS
In test [1], B6 had a Kd of 91.9 nM, an off-rate constant (koff) of 0.000476 s⁻¹ and a kon of 5190 M⁻¹ s⁻¹. In test [2], the Kd turned out to be 7.6 nM, the koff was determined as 0.000615 s⁻¹ and the kon came to 80900 M⁻¹ s⁻¹.

B7: ACI-7079-2506F3-Ab1 (antibody, V domains shown)
VH: QVQLQQPGAELVKPGASVKLSCKASGYTFTTYWMQWVKQRPGQGLEWIGEIDPSDSYINYNQKFKGKATLTVDTSSSTAFMQLSSLTSEDSAVYYCARGMMDYWGQGTSVTVSS
VL: DVLMTQTPLSLPVSLGDQASISCRSSQSIVHSNGNTYLEWYLQKPGQSPKLLIYKVSNRFSGVPDRFSGSGSGTDFTLKISRVEAEDLGVYYCFKGSHVPYTFGGGTKLEIK
In test [1], B7 had a Kd of 8.8 nM, a koff of 0.000161 s⁻¹ and an association rate constant (kon) of 18300 M⁻¹ s⁻¹. In test [2], this molecule displayed a Kd of 2.4 nM, a koff of 0.00051 s⁻¹ and a kon of 210000 M⁻¹ s⁻¹.

B8: ACI-8033-1G10-Ab1 (antibody, V domains shown)
VH: DVQLQESGPGLVKPSQTVFLTCTVTGISITTGNYRWSWIRQFPGNKLEWIGYIYYSGTITYNPSLTSRTTITRDTPKNQFFLEMNSLTAEDTATYYCARIYYGNAMDYWGQGTSVTVSS
VL: B7 VL with L3V, I29L, E39H, Y92F, F94S, K95Q, G96S, S97T, Y101H
In test [1], B8 gave a Kd of 3.7 nM, a koff of 6.54e-05 s⁻¹ and a kon of 17700 M⁻¹ s⁻¹.

B9: ACI-7088-4303A3-Ab1 (antibody, V domains shown)
VH: QVQLQQSGAELVRPGASVTLSCKASGYTFTDYEMHWVKQTPVHGLEWIGVIDPETGGAVQNQKFKGKAILTADNSSSTAYMDLRSLTSEDSAVYNCAMGAALRLAYWGQGTLVTVSS
VL: B7 VL with T36S, S81N, K95Q, Y101F, G105S
In test [1], B9 came in with a Kd of 9.4 nM, a koff of 0.000606 s⁻¹ and a kon of 64700 M⁻¹ s⁻¹. Moreover, in test [2], the Kd was 1 nM, the koff turned out to be 0.00107 s⁻¹ and the kon turned out to be 1.04e+06 M⁻¹ s⁻¹.

B10: ACI-7079-2507B3-Ab1 (antibody, V domains shown)
VH: EVQLVESGGGLVQPKGSLKVSCAASGFTFKTYAMHWVRQAPGKGLEWVARIRSENSNFAKYYADSVKDRFTISRDDSQSMLYLQMHTLKTEDTAIYYCVRGYNGSSLDYWGQGTTLTVSS
VL: QIVLTQSPAIMSAFPGERVTMTCSASSSVNYMHWYQQKSGTSPKRWIYDTSKLASGVPARFSGGGSGTSYSLTISNMEAEDAATYYCQQWRSNPPTFGGGTKLEIK
Consider B10, for which, in test [1], the equilibrium dissociation constant (Kd) was 34.9 nM, the koff amounted to 0.000668 s⁻¹ and the kon turned out to be 19100 M⁻¹ s⁻¹. In addition, in test [2], the Kd worked out at 2.6 nM, the koff was determined as 0.000642 s⁻¹ and the kon came out at 245000 M⁻¹ s⁻¹.

B11: ACI-7067-1106A8-Ab2 (antibody, V domains shown)
VH: EVQLVESGGGLVQPKGSLKLSCAASGFTFNTYAMHWVRQAPGKGLEWVARIRSKGSNYATNYADSVKDRFTISRDDSQSMLYLQMNNLKTEDTAMYYCVRGHGSSYFSYWGQGTLVTVSA
VL: B10 VL with F14S, R18K, N30S, K52N, G64S, N76S, R91N, N93H, G99A, I105L
With B11, in test [1], the Kd was 25 nM, the off-rate constant (koff) was determined as 0.00721 s⁻¹ and the kon came out at 284000 M⁻¹ s⁻¹. In test [2], this molecule gave a Kd of 23.2 nM, a koff of 0.005 s⁻¹ and a kon of 218000 M⁻¹ s⁻¹.

B12: ACI-7067-1102G3-Ab1 (antibody, V domains shown)
VH: EVKLEESGGGLVQPGGSMKLSCAASGFTFSDAWMNWVRQSPEKGLEWVAEIRNKAHNHATYYAESVKGRFTISGDDSKSSVYLQMNNLRAEDTGIYYCTIYSYWGQGTLVTVSA
VL: SIVMTQTPKFLLVSAGDRVTITCKASQSVTKDVAWYQQKPGQSPKLLIYSTSNRYSGVPDRFTGSGYGTDFTFTINTVQTEDLAVYFCQQDYRIPYTFGGGTKLEIK
In test [1], B12 registered a Kd of 30.6 nM, a koff of 0.00135 s⁻¹ and an on-rate (kon) of 46000 M⁻¹ s⁻¹. In test [2], the Kd was 8 nM, the koff came out at 0.00103 s⁻¹ and the kon was 129000 M⁻¹ s⁻¹.

B13: ACI-8033-5A12-Ab1 (antibody, V domains shown)
VH: QVHLKQSGADLVRPGASVKLSCKASGYTFTDYYINWVKQRPGQGLEWIARIYPGSGNTYYNEKFKGRATLSAEKSSTTAYMQLSSLTSEDSAVYFCVVGYYGAWGQGTTLTVSS
VL: DVVMTQTPLSLPVSLGDQASISCRSSQSLVHSNGKTHLHWYLQKPGQSPKLLIYKVSNRFSGVPDRFSGSGSGTDFTLKISRVEAEDLGVYFCSQSTHVPWTFGGGTKLEIK
For the molecule B13, in test [1], the Kd stood at 0.1 nM, the off-rate constant (koff) was determined as 4.37e-06 s⁻¹ and the kon is 30600 M⁻¹ s⁻¹.

B14: ACI-7088-4301H3-Ab2 (antibody, V domains shown)
VH: EVQLQQSGPELVKPGASVKISCKASGYTFADYFMNWVKQSHGKSLEWIGDINPNNGGTTYNQKFKGKATLTVDKSSNTAYMELRSLTSEDSAVYYCARGRNYAMDYWGQGTSVTVSS
VL: DIVMSQSPSSLAVSAGEKVTMSCKSSQSLLNSRTRKNYLAWYQQKPGQSPKLLIYSASTRESGVPDRFTGSGFGTDFTLTISSVQAEDLAVYYCKQSYDLWTFGGGTKLEIK
On to B14, for which, in test [1], the Kd worked out at 86.5 nM, the koff was 0.000898 s⁻¹ and the kon was 10400 M⁻¹ s⁻¹. In test [2], this molecule had a Kd of 119 nM, a koff of 0.00329 s⁻¹ and a kon of 27600 M⁻¹ s⁻¹.

B15: ACI-7079-2602G4-Ab4 (antibody, V domains shown)
VH: B11 VH with N30K, N57D, N61Y, Y97F, H102G, G103A, S104D, Y106W, S108A, A120T
VL: QIVLTQSPAIMSASPGERITMTCTASSSVSYMHWYQQKSGTSPKRWIYDTSKLASGVPARFSGSGSGASYTLTISSMEAEDAATYYCQQWNRNPPTFGGGTQLAIK
In test [1], B15 showed a Kd of 18.9 nM, a koff of 0.000234 s⁻¹ and a kon of 12400 M⁻¹ s⁻¹. In test [2], this molecule gave a Kd of 3.9 nM, a koff of 0.000867 s⁻¹ and a kon of 223000 M⁻¹ s⁻¹.

B16: ACI-7079-2605B3-Ab2 (antibody, V domains shown)
VH: EVQLVESGGGLVQPKGSLKLSCAASGFIFKTYAMHWVRQAPGKGLEWVARIRSKGGNYATYFADSVKDRFTISRDDSQNMLYLQVNNLKIEDTAMYFCVRGGNYSWFAYWGQGTLVTVSA
VL: QIVLTQSPAIMSASPGEKVTMTCSASSSVTYMHWYQQKSGTSPKRWIYDTSQLASGVPARFSGSGSGTSHSLTISSMETEDAATYYCQQWTRNPPTFGGGTKLAIK
In test [1], B16 displayed a Kd of 17.4 nM, a koff of 0.000294 s⁻¹ and a kon of 16800 M⁻¹ s⁻¹. In addition, in test [2], the Kd stood at 3.9 nM, the koff is 0.00109 s⁻¹ and the kon came out at 283000 M⁻¹ s⁻¹.

As a reminder, the Kd is a measure of binding affinity in units of concentration. Higher therefore signals lower affinity. By koff is commonly meant the rate constant with which the complex falls apart. A lower koff goes with a long-lived complex. The kon is the rate constant with which the complex forms. High values mean fast association, low ones slow association.
